Reference: the DeepSol protein solubility set

Assay: soluble on expression in E. coli; label from the status in PepcDB or PDB records

Sequence | soluble on expression in E. coli
MSLAEFIYTMKKVRKAHGDKVILDDVTLSFYPGAKIGVVGPNGAGKSSVLRIMAGLDKPNNGDAFLATGATVGILQQEPPLNEDKTVRGNVEEGMGDIKIKLDRFNEVAELMATDYTDELMEEMGRLQEELDHADAWDLDAQLEQAMDALRCPPADEPVTNLSGGERRRVALCKLLLSKPDLLLLDEPTNHLDAESVQWLEQHLASYPGAILAVTHDRYFLDNVAEWILELDRGRAYPYEGNYSTYLEKKAERLAVQGRKDAKLQKRLTEELAWVRSGAKARQAKSKARLQRYEEMAAEAEKTRKLDFEEIQIPVGPRLGNVVVEVDHLDKGYDGRALIKDLSFSLPRNGIVGVIGPNGVGKTTLFKTIVGLETPDSGSVKVGETVKLSYVDQARAGIDPRKTVWEVVSDGLDYIQVGQTEVPSRAYVSAFGFKGPDQQKPAGVLSGGERNRLNLALTLKQGGNLILLDEPTNDLDVETLGSLENALLNFPGCAVVISHDRWFLDRTCTHILAWEGDDDNEAKWFWFEGNFGAYEENKVERLGVDAARPHRVTHRKLTRGEGHHHHHH | soluble
MAHHHHHHMMPTQSEEQTKAQIPKSQAKIVNELIENKDTICAWCFDVLKYELKNEKFDKVPPLIQSLHNDGFKIPFFVKWMKLNDVKDMGSYNYDAYELNGCIGCLGETDIMELRYYALESSLNDTRFYPITLKDFPFLIVTITYLFNFEKCAHVYDWVIGKHGIKISFVANKRRYSSTFLPEVASQHNFDHQTTVKKLIRKANYRGEINDELLENIEVERYEGVSCSLTHVDYERVKRD | soluble
MGDIMLIILTGLPGVGKSTFSKNLAKILSKNNIDVIVLGSDLIRESFPVWKEKYEEFIKKSTYRLIDSALKNYWVIVDDTNYYNSMRRDLINIAKKYNKNYAIIYLKASLDVLIRRNIERGEKIPNEVIKKMYEKFDEPGKKYKWDEPFLIIDTTKDIDFNEIAKKLIEKSKEIPKFYVLEENKNKNNNISDKIDKETRKIVSEYIKSKKLDKDKIKEVVELRKEFLKKIKKMEEVDADRVLKEFKDLLNSYLEHHHHHH | soluble
MLNNDVLRSLRYLLDLPDAHLAELAARFGEQVEADLLEAYLKKEDEDGFQACPDRYLARCLDGLIIQRRGRDESRPLPPLELPLSNNMILKKLRVAFELKEEDLHAILDSVDFPVSKPELSALFRKPGHSNYRTCGDQLLRNFLKGLTLRVRG | not soluble
MAHHHHHHMLHTTRLWLGGYMMYHRKAMGTMKYSKWKGAHGGISHFYGRTPMVEEVRPNEPITLVDRRIMHYVHHSRLRHFQLFRSYQEKSNSTECKLREGEMLRRRWHRRLQKSFIAFMQFKTMKVLEDQARLVNTYGQAAVNAALGDPWNATDNVARERKSAAVRRQVRALPMVNVVPKHVATMKQIHNDRFNYRWRVN | not soluble
MSLQLRHNRTLLENLADRQTMALQQFVDGDIHFIGSAANFFRSSTSDDWVRFHTFAEETLKGSQSLIALQWLVKVEPPQAETFTARMQQRFPEFTLYTVPKTGEIKYGFGTDDQAKYVLSDIYPLNYDNRKLLGFYSERERFKRILADIVVNRRPNVSDKVRLLQDGIDKSIVKDGMLVYHPVFSSEDDRSLLGVMVGVVRLSTYFEKLVQISVMEQDLDMRVIDTGFDSEDSPVLYQSPMWRADDEPKIERKLVLPNRDWVLEFELHQPINHSEELEHHHHHH | soluble
MPTVPIPARKAATTFDTPSKHERIEVKPPITRFIRRAITRVFGVWSHISTQVVRQWGWYPRVEPYVGYGTGDYSRLICRTVYAPKHAQSGELIRGIRGMLAVPAPRTHVQASIDDMPLNTVQIGVSEVYDKVDRTRDLGSEYAISDSAGYLDLVAEHRLVPGIHRVSYSVANRKPVSANLYTIPASAKVGIISDVDDTIMITQAPVPWKAAYNLLFLDPKKKASVPGMSVLFTRIADLFPGAPFFYLSTSPWNVESSIRNFITDHGFPEGPLLLRDLDPRPKTFVPTGPQHKLEFAEQLMADFPDMKFILVGDDGQKDPTTYATIARRYPGRVLAIVIRELSPRESTGLASVTGLTSTQPTPVTDVPVFTGTTGSNILKTMLPYLKTVLRLEHHHHHH | not soluble
MSQLINLPMDQILYLSTSDIKHHVHLQTIHTLMDIRANLADFKKIHKKLYPCHRSYIVNTDMIISVNKTNYEATLINGQVLPVSRMKIGKIAQIVEERGRLEHHHHHH | not soluble
MGSDKIHHHHHHMRGRCPVSRAMMPTGPSGVEVSSVEMPGTKGVSVNLTRSLDGTVFTTLTRLSESVDMIDLVNEAVVQSLDEIAGYEAQLPSAKIATAMCFRAMQSITDYAPTTIEAADRLISNAYEIDPQPVFLAWRAYLRTFLLGESGGGNSQAISEEMERFINLAEEREPGNSIILSLAAFIRSMWLLSSEDALDLAQRSHALNPSNPYGISYLGMVHTHLGNFEEGYRLTRRANALTVPRGAKSSIRYVAMRSAACAGRYTEAIKIGEALGRDAPHFVAPKRLMGLLYMKCGRVADAEAMVETLRQHEPDYSMEKMRDAFRASPLLHRSKLGKAG | not soluble
GGGGGGMKRFYIANEDEIKAGKTTDVYFLRTKKILEVKNIRKKVLADVTTTSLPNNWRWGVLVGVEEVAKLLEGIPVNVYAMPEGTIFHPYEPVLQIEGDYADFGIYETALLGMLSQASGIATAALRIKIAAKFKPVYSFGIRHMHPAIAPMIDRAAFIGGCDGVSGVLGAEMMGEKAVGTMPHALIITVGDQVKAWKYFDEVIEEEVPRIALVDTFYDEKVEAVMAAEALGKKLFAVRLDTPSSRRGNFRKIIEEVRWELKVRGYDWVKIFVSGGLDEEKIKEIVDVVDAFGVGGAIASAKPVDFALDIVEVEGKPIAKRGKLSGRKQVYRCENGHYHVVPANKKLERCPVCNAKVEPLLKPIIENGEIVVEFPKAREIREYVLEQAKKFNLEI | soluble
MAHHHHHHMLRRVVAPAPVSATAACAGQARSIYEYKFGQTPLTQPFGGTSRLPPGPSSNPAPVAPGKVEITKLHNGARVITHNLGGPSVSVGAYILAGPAYDPPSAPGAGAMMHLALTTSNYNNSLFQLDRNIRSVGAAQSHFEKHKHYIGIRIDARADKWKSAASTSSFSQRRQLQNQKQAEQQFSLNLVQDNIFTCIAAPRFHEPDVERFRDTIDNQVEELRWQCPAEYAKQMLETVAFYREPLGNPRFVPAMSNSIISSSVLLEQYSRYIVPSRVVVAGVNVDHAALIAEYENTPFPHSASAPHHARAQPCVVNWKDEASQYTGGERHDHEDRPKVMGTKPDMDPESIIAVGWLAYGKDRKMVKDHAASMVVGALMDIGFSGCMRCGAPDEMHEHTGLRAFYNPYQTAGLIGFTAKAEPQAAVRMVTDAVKMVRASQASVADSMLSVAKKMAKTQFMVQTVDTIRDYCDYLGTCLAVDSDSTLATSVEEVVDAINSVNAADVKRVYEKMFSNKTSLYGHGEMLGFPSMRQMGL | not soluble
MNEPSACSGPPVKSKSSKNEPFYTLKALLPPYSEIQGNHDLLMSYELGPVEGGFSGSRRVKEKISSFLPHIIGEFHLDATKEASSLRALIEKPPIHKEISNLTSSSMQGFKLSAGPVDERYRHLFERRKEEPNLAYSEKLNLIRVRQQYDAYGFDDDETEKGFPKKHKKKKKDKKRKKEKEELGDAEKRKRAADEPMEF | not soluble
MPGQKQKGKKNVRRTKTRFELIEPSKGQLIAEVEDTHGGYPPRFSCKTVDGDIIIAPIQGSIMKGPKRVLVKKDNLVLLVPIDFTTGKEGTTSYYIHHVYTSEDRHQLEKKGFLEKKDKISDATKSTKVVFGVESSDKSLEKAKDEELDIDTI | not soluble
GSSGSSGMKQATRKPTTPGDILLYEYLEPLDLKINELAELLHVHRNSVSALINNNRKLTTEMAFRLAKVFDTTVDFWLNLQAAVDLWEVENNMRTQEELGRIETVAEYLARREERAKKVA | soluble
MGSDKIHHHHHHMDDAMVSAVTCGAVMAFDRNIWIEKFLENSVPSFPCPHCSRGVLGFDGKSFWKEEPKHSKDAHAHDDWDPTWIEERFVMFLRCGVAKCGEVVAVSGNIEVEEVVDEDEGYDFASVLYPTSLVPAPPIIQMTDGTPDEVAGELSLAFQLFWADLGASATKIRTSVERLMDHFKVARYSRTKGKLKPIPLYNRIEAFIKANGKVVHQDHLHALRVVGNLGTHKNSLTRSDILEAFQVYEHALDELIGKKSASIAKLARKLKKK | not soluble
MGSDKIHHHHHHMENRKHTSLKDLAQALGVSIPTVSRALKDSPEISRELCAKAKKLAKEMNYRPNPFAMSLRKNAPRIIGVIVPDIVTHFFASILNGIENMAIDNGYFVIITTSHESFEHEKRNIENLVNMRVEGIIACLSQETTDFSHFAALKEINMPLILFDRVCLTDQFSSVIADGAQSAQMATQHLLDNGSKRVAFIGGANHLDIVKRRKHGYLEALRDNRIPIEKELVVCRKIDYEEGQIATETLLSLPQPPDAILAMNDTLAFAAMEVIKRHGLRIPDDIAIIGYTDEQHANYVEPKLSAVSHQTYKMGETACQLLIDQIKGDRTVKQVVIPTHLQIRESSIKENNKKNAVST | not soluble
MSKTAIIFPGQGAQKVGMAQDLFNNNDQATEILTSAANTLDFDILETMFTDEEGKLGETENTQPALLTHSSALLAALKNLNPDFTMGHSLGEYSSLVAADVLSFEDAVKIVRKRGQLMAQAFPTGVGSMAAVLGLDFDKVDEICKSLSSDDKIIEPANINCPGQIVVSGHKALIDELVEKGKSLGAKRVMPLAVSGPFHSSLMKVIEEDFSSYINQFEWRDAKFPVVQNVNAQGETDKEVIKSNMVKQLYSPVQFINSTEWLIDQGVDHFIEIGPGKVLSGLIKKINRDVKLTSIQTLEDVKGWNEND | not soluble
MISFNNVSKVYESGGQSVHAVEDVTLSVEKGEIFGIIGFSGAGKSTLLRLVNMLERPTAGTISIDDKDITSLSTKELRKLRQRIGMIFQSFNLFNSRTVFGNIAYPLKLAKVPKNEIKERVNELLKFVGLEDKANNYPEQLSGGQKQRVGIARALATSPDILICDEATSALDPETTTEILNLLKKVNREYNLTILLITHEMHVVKEICHRVAVMEKGKVIEEGKLFDVFTQPKTTTTQNFVRSVINDHLPESVLAKIQNGGQIYRLTFTGEETGQPVLSYIAKNYNVDVNVLYGNIIELQNVLFGNLLVELQGEQREIQKALQHLRLQVQLKEVEAHAS | not soluble
METNALDVNKQSWDQAAPRFFARNPLPEYGPLAPSEEELHLFGDVDRLKVLEIGCGSGHSLKYLDEKQAGELWGIDLSTKQIEAAQTVLKDSKAPVTLFESPMEVNPGLPTDYFDIVFSIYALGWTTNLTKTLENVYRYLKPGGSFIFSWEHPMYNRVRQHQHGLTVDKSYHEEGAYAHEAWSSPAIMQQYRLSTYLNHLIDHGFKVERVIEDVCLADAQKHTNGWYGYEKAQMIPTTLIIKCLKQLEHHHHHH | not soluble
MSLGEEFHRNRTRFTKDPRVKSQDLLILALMDNQLRPTLHYQAQNPHRRVLVTGATGYIGGRLITELLAAGFQVRATSRKKTSLQRFDWYEDVEAVEADLTDATELDTLFKDVDVVYYLVHSMGGKNVDFEEQEQRTAENVIQAADQAGIKQIVYLSGLHPRNRKIEELSKHMRSREKVAQILLAGQTPALILRAATIIGSGSASFEIIRHLTERLPRMIAPQWITNQIEPLAIRDVLHYLISAADLKDPVNRSCDIGCGKSYEFADLLRIYADVRGLKRHVNSVPLNLPMDKLSGLWISLVTPVPFQLSFPLAQSMAEDAVTEEHSIKDIISDPPDGFIEYREAVELALAAEFDRGVPTSWDRSWTVQQPWAGQPTDPEWAGKAVYEDVRTEDTDLRAAQVWPIIEGLGGVNGWYSAPLLWRLRGIADRLIGGPGLGGRRDPRHLKLGDRIDWWRVTEIDPPHRLVLTAEMKVDGGAWLILEVADKENGGCTYTQRAIFEPKGEGHHHHHH | not soluble
SNATKTIHNARYQALLDLLLEARSAAGITQKELAARLGRPQSFVSKTENAERRLDVIEFMDFCRGIGTDPYALLSKLEAMTPS | soluble
